In article PMC5123071, “The Apaf-1 apoptosome induces formation of caspase-9 homo- and heterodimers with distinct activities” (Nature Communications, 2016):
Positions count from the first letter of the chain named.

T1: recombinant full-length Apaf-1XL (UniProt O14727-1 1-1248)
T1 construct: Oligomerised into the apoptosome with bovine cytochrome c (Sigma) and dATP/MgCl2; also called oligomerized Apaf-1; Apaf-1 apoptosome; source: Hi-five or Sf21 cells, baculovirus, purified
T1 sequence (looked up): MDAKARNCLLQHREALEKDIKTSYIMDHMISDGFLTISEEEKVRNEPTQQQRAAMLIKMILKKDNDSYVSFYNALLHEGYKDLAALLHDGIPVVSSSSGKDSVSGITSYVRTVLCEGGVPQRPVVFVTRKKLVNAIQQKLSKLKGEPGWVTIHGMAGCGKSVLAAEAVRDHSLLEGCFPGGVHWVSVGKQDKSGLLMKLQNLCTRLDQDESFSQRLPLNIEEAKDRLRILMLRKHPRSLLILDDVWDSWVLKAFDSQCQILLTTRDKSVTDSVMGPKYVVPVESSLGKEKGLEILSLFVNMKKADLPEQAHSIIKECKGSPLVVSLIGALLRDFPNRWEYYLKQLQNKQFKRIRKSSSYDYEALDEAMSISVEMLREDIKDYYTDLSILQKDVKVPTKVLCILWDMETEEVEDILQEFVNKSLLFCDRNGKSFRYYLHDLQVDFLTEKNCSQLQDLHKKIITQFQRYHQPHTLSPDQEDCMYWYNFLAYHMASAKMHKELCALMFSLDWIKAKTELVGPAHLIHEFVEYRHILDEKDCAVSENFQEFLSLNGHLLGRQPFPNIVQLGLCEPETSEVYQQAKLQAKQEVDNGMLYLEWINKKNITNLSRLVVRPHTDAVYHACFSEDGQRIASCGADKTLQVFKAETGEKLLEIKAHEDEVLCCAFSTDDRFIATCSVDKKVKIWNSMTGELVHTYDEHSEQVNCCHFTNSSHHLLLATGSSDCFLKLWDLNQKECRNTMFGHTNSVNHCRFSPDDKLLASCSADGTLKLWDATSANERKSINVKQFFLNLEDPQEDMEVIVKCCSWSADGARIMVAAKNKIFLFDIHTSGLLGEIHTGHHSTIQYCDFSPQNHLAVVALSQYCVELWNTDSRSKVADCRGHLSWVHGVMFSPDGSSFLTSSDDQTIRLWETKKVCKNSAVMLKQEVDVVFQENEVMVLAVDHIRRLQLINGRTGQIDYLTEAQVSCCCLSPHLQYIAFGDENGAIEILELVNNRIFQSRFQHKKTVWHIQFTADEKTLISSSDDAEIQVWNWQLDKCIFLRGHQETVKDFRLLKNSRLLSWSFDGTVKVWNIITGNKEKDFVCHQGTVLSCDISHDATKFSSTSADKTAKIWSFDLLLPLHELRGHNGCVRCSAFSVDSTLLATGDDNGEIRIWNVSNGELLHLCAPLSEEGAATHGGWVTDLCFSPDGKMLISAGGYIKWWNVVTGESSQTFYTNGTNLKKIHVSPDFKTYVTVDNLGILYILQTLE

T2: processed two-chain caspase-9 C9-p35/p12 (UniProt P55211 1-315; P55211 316-416)
T2 construct: caspase-9, p35 (prodomain and large subunit), ends at Asp-315 (PEPD315); caspase-9, p12 small subunit with the intersubunit linker, begins after Asp-315; Purified on Ni2+-NTA; also called processed C9; cleaved C9; source: E. coli BL21(DE3)pLysS, wild-type ProC9 overexpressed and autocleaved at Asp-315, purified (Ni2+-NTA, Mono-Q)
T2 sequence (looked up) 1: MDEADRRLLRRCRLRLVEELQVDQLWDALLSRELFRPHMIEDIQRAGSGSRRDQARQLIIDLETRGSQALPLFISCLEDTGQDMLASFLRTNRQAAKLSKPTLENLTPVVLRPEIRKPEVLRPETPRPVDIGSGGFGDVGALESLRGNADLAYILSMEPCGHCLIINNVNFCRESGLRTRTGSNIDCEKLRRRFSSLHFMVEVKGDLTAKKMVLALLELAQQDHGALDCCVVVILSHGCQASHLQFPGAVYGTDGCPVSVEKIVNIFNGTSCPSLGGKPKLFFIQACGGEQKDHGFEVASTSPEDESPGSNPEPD
T2 sequence (looked up) 2: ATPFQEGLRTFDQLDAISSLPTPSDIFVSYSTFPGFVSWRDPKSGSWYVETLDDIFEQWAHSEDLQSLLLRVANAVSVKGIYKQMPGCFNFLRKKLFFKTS

B1: C9-p35/p12-CIVSM (enzyme)
chain 1: T2 sequence (looked up) 1
chain 2: T2 sequence (looked up) 2 with G87C, C88I, F89V, N90S, F91M
notes: caspase-9, p35 (prodomain and large subunit), ends at Asp-315; caspase-9, p12 small subunit, GCFNF dimer motif replaced by the caspase-3 motif CIVSM; Homodimer by SEC-MALS; also called GCFNF→CIVSM; source: E. coli BL21(DE3)pLysS, ProC9-CIVSM fully processed during expression, purified (Ni2+-NTA, Mono-Q); copies: 2 + 2
B2: biotinylated Apaf-1 CARD-LZ-Avi (domain or fragment)
chain: not shown
modifications: biotin on the AviTag (BirA)
notes: Apaf-1 CARD (1-137); GCN4 leucine zipper, C-terminal to the CARD, followed by the AviTag and the His6-tag; Cloned into pRSF-Duet1; also called Apaf-1 CARDs; source: E. coli BL21(DE3)pLysS, purified (Ni2+-NTA, Mono-Q), biotinylated with BirA, avidin column
B3: Apaf-1 NOD protein (127-530) (domain or fragment, UniProt O14727 127-530, looked up)
chain: VTRKKLVNAIQQKLSKLKGEPGWVTIHGMAGCGKSVLAAEAVRDHSLLEGCFPGGVHWVSVGKQDKSGLLMKLQNLCTRLDQDESFSQRLPLNIEEAKDRLRILMLRKHPRSLLILDDVWDSWVLKAFDSQCQILLTTRDKSVTDSVMGPKYVVPVESSLGKEKGLEILSLFVNMKKADLPEQAHSIIKECKGSPLVVSLIGALLRDFPNRWEYYLKQLQNKQFKRIRKSSSYDYEALDEAMSISVEMLREDIKDYYTDLSILQKDVKVPTKVLCILWDMETEEVEDILQEFVNKSLLFCDRNGKSFRYYLHDLQVDFLTEKNCSQLQDLHKKIITQFQRYHQPHTLSPDQEDCMYWYNFLAYHMASAKMHKELCALMFSLDWIKAKTELVGPAHLIHEFVEYR
notes: aa 127–530); Oligomerised with dATP/MgCl2; also called T7-NOD; NOD apoptosome complexes; source: E. coli BL21(DE3)pLysS, purified (Ni2+-NTA, Mono-Q; MBP removed with TEV protease, negative selection on Ni2+-NTA beads; not shown: MBP, N-terminal, cleaved; His6, internal (between MBP and NOD), cleaved
B4: C9 prodomain (domain or fragment)
chain: MDEADRRLLRRCRLRLVEELQVDQLWDALLSRELFRPHMIEDIQRAGSGSRRDQARQLIIDLETRGSQALPLFISCLEDTGQDMLASFLRTNRQAAKLSKPTLENLTPVVLRPEIRKPEVLRPETPRPVDIGSGGFG

What was measured:
[1] = target: the molecule itself; assay: SEC-MALS; recombinant C9 proteins 200 μl at 40 μM; 20 mM HEPES, 50 mM NaCl, pH 8.0; 0.5 ml/min
[2] = target: T1, recombinant full-length Apaf-1XL; assay: SEC; Apaf-1 (300 nM) with C9 protein (200 nM) and Cc/dATP, 30 min 37 °C; Superose-6 gel filtration, pooled fractions precipitated and immunoblotted for Apaf-1 and C9; settings: both partners purified
[3] = target: T2, processed two-chain caspase-9 C9-p35/p12; assay: SPR; biotinylated Apaf-1 CARD-LZ-Avi immobilised on an SA chip; C9 proteins 125 nM-2 μM as analytes; 0.01 M HEPES, 0.15 M NaCl, 3 mM EDTA, 0.05% P20; room temperature; affinities by equilibrium analysis, kinetics fitted to a two-state model; settings: both partners purified
C9-p35/p12-CIVSM = target: B1; assay: as above; settings: both partners purified
[4] = target: the molecule itself; assay: SEC; Apaf-1 NOD (1.5 μM) and ΔPro-C9-TM (80 nM) with dATP/MgCl2 (2 mM each), 30 min 37 °C; Superose-6 in 20 mM HEPES, 50 mM NaCl, 10 mM DTT, pH 8.0; fractions immunoblotted with anti-T7
[5] = target: B2; assay: SPR; biotinylated Apaf-1 CARD-LZ-Avi immobilised on an SA chip; C9 proteins 125 nM-2 μM as analytes; 0.01 M HEPES, 0.15 M NaCl, 3 mM EDTA, 0.05% P20; room temperature; affinities by equilibrium analysis, kinetics fitted to a two-state model; settings: both partners purified

## B1
[1]
  stoichiometry N: 2
[2]
  binding result: binds

## B2
[3]
  Kd: 388 nM
C9-p35/p12-CIVSM
  Kd: 68 nM

## B3
[4]
  binding result: binds

## B4
[5]
  Kd: 41800 nM
